Assay results: patent US20120114595A1 (OTSUKA CHEMICAL, published 2012)

Experiments:
[1] = target: T1, AILIM ligand B7-H2/Fc Chimera (R&D Systems, Inc.), biotinylated (UniProt O75144 19-258, biotinylated using EZ-Link NHS-PEO Solid Phase Biotinylation Kit (sites not given)); test: ELISA, coated synthetic AILIM against coated ICOS/Fc as reference, biotinylated B7-H2/Fc
T1 construct: Bought reagent; also called B7RP-1; Fc part of the bought chimera not given
T1 sequence (looked up): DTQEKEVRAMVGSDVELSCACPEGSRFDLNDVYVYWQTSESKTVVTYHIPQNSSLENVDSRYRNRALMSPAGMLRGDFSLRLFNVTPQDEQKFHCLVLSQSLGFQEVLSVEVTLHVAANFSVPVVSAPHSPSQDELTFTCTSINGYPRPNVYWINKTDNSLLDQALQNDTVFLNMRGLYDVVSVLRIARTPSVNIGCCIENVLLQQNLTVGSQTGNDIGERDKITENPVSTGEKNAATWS
Description: (§1) Dilution series of each evaluation sample solution of synthetic AILIM were added to an ELISA plate, and each well was coated therewith by reaction at 37° C. for 2 hours. After the reaction, the sample solution was discarded, D-PBS (−) containing 0.4% bovine serum albumin and 0.05% Tween 20 (blocking solution) was added at a concentration of 150 μL/well, and each well was blocked by reaction at 37° C. for 1 hour. The plate thus blocked was washed 3 times with D-PBS (−) containing 0.1% bovine serum albumin and 0.05% Tween 20 (washing buffer). An AILIM ligand B7-H2/Fc Chimera (R&D Systems, Inc.) biotinylated using EZ-Link NHS-PEO Solid Phase Biotinylation Kit was added at a concentration of 200 ng/50 μL/well and reacted at 37° C. for 1.5 hours. Unreacted ligand molecules were removed by washing 3 times with the washing buffer.
(§2) Subsequently, streptavidin-labeled horseradish peroxidase (BD-Pharmingen) diluted 1000-fold with D-PBS (−) containing 0.1% bovine serum albumin was added at a concentration of 100 μL/well and reacted at 37° C. for 1 hour. After the reaction, the plate was washed with 3 times with the washing buffer to remove unreacted streptavidin-labeled horseradish peroxidase. […] The reaction was terminated by the addition of 1% SDS at a concentration of 100 μL/well, and the OD value at 405 nm was measured using a plate reader (VersaMax, Molecular Devices, LLC). […]

[2] = target: T1, AILIM ligand B7-H2/Fc Chimera (R&D …); test: ELISA, coated synthetic AILIM (lot a, 0.01671 nmol/ml) against coated ICOS/Fc as reference, biotinylated B7-H2/Fc
Description: as §1, §2

[3] = target: T1, AILIM ligand B7-H2/Fc Chimera (R&D …); test: ELISA, coated synthetic AILIM (lot a, 0.06684 nmol/ml) against coated ICOS/Fc as reference, biotinylated B7-H2/Fc
Description: as §1, §2

[4] = target: T1, AILIM ligand B7-H2/Fc Chimera (R&D …); test: ELISA, coated synthetic AILIM (lot a, 0.004178 nmol/ml) against coated ICOS/Fc as reference, biotinylated B7-H2/Fc
Description: as §1, §2

fold ICOS/Fc concentration required for equivalent ligand binding activity [1]: ~10 fold
B/A (ICOS/Fc concentration for the same absorbance over synthetic AILIM concentration) [2]: 6.05 fold
B/A (ICOS/Fc concentration for the same absorbance over synthetic AILIM concentration) [3]: 11.4 fold
B/A (ICOS/Fc concentration for the same absorbance over synthetic AILIM concentration) [4]: 8.88 fold
B1: oligosaccharide chain-added extracellular domain of AILIM (synthetic AILIM), 120-amino acid extracellular domain of human AILIM with an asialo-nonasaccharide … (receptor)
chain: EINGSANYEMFIFHNGGVQILCKYPDIVQQFKMQLLKGGQILCDLTKTKGSGNTVSIKSLKFCHSQLSNNSVSFFLYNLDHSHANYYFCNLSIFDPPPFKVTLTGGYLHIYESQLCCQLK
modifications: asialo-nonasaccharide chain on Asn at position 69 (residue 89 by counting from the N-terminal Met of AILIM); no oligosaccharide chain at positions 3 and 90
notes: Made by chemical synthesis (Fmoc solid phase, KCL/NCL ligation), Acm groups removed, folded by dialysis in two dialysis tubes (lot a and lot b); Coated on the ELISA plate in the assays; also called synthetic AILIM lot. a; synthetic AILIM lot. b
